For this series, the system named is Bacillus subtilis DB104 (SP-AmyQ fusion secretion). The series is described as follows: AmyQ secretion efficiency, weighted average sort bin (1 = best secretion, 10 = worst) (bin number (weighted average, 1-10)); higher = lower secretion efficiency. The essentials:
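The secretion score was taken as the read-frequency-weighted mean bin number, normalised to beads per bin, with low-abundance sequences excluded. Bins came from large-particle flow cytometry sorting of occupied alginate beads (~65 nL, about 0.3 cells each, with fluorescein-starch) into 10 equally populated groups by green/red fluorescence ratio after about 13 h at room temperature and nile red staining. The cells were a B. subtilis DB104 library with mature AmyQ fused to designed signal peptides, integrated at amyE, and each bin's amplicons were Illumina-sequenced.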

Where “and” joins values, the source holds several entries; their conditions need not be identical. Identical values can stand only once.

Take MKRIRIPMTLALGAALTIAPLSFASQEEN: the AmyQ secretion efficiency was found to be 7.06.
The result for MFNRLFRVCFLAALIMAFTLPNSVYIQKP reads 7.01; that for MSSSVKIAGVLTVAAAAMTAKMYATAKGN, 4.6; that for MKRTWNTTTVCLTALLSVLLVAGSVPFHAEAKKP, 2.17.
The result for MKRIRIPMTLALGAALTIAPLSFASAEED reads 3.29; that for MRKYTVIASILLSFLSVLSGGHHEWKAFPV, 4.79; that for MKKLLAAGIIGLLTVSIASPTFAAEK, 2.52.
For MKRLLVSLRVWMVFLMNWVTPDRKTRAAAVY, the AmyQ secretion efficiency was determined as 6.54.
MKKWIYVVLVLSIAGIGGFSVHSASS yielded an AmyQ secretion efficiency of 5.94.
In the case of MKSCKQLRRCKRRRILLLIPSVSFAADS, the AmyQ secretion efficiency turned out to be 7.57.
Sequence MLCVMMLLFSAIAKKRRKRAQAKDQ gave an AmyQ secretion efficiency of 7.12.
Sequence MILTKVLTGSVLSLGLLVSASPAFATSP registered an AmyQ secretion efficiency of 1.75.
Take MFNRLFRVCFLAALIMAFTLPNSVYFQKP: the AmyQ secretion efficiency was 7.24.
The sequence MIMLWRSLALCGLALTLAPCAQAAEP had an AmyQ secretion efficiency of 4.91.
MKNMSCKLVVSVTLFFSFLTIGPLIHAQNS: the AmyQ secretion efficiency is 1.06.
MKLSVKTRQKTTVAAAAMTAKMYATAKGN yielded an AmyQ secretion efficiency of 7.48.
On to MKKIMSAFVGMVLLTIFCFSPQASAADD, for which the AmyQ secretion efficiency is 3.32.
MGLGKKLSVAVAASFMSLSISLPGEQAAEG: the AmyQ secretion efficiency is 3.68.
As for MKLWMRKTQKGLFTIVTFGLVSPPAALMADKP, the AmyQ secretion efficiency is 5.07.
As for MAIIIAIIAAVIVIAALITFNVRNPSPG, the AmyQ secretion efficiency was 7.75.
For MTKKAWFLPLVCVLLISGWLAPAASASQQTT, the AmyQ secretion efficiency was 2.02.
In turn, MKKLLAAGIIGLLTVSSFAAEK registered an AmyQ secretion efficiency of 6.74.
Sequence MKRMIVRMTLPLLIVCLAFSSFSASARAEEE came in with an AmyQ secretion efficiency of 3.68.
With MTTTAWFLPLVCVLLISGWLAPAASASAQTT the figure was 2.09; with MKVCQKSIVRFLVSLIIGTFVISVPFMANARKR, 3.31.
Sequence MKKRFSLIMMTGLLFGLTSPTFAAEK had an AmyQ secretion efficiency of 3.56.
MKRFLIGAGVAAVILDDEEEADHQTHSQEM: the AmyQ secretion efficiency was found to be 7.2.
As to MSSYIKVLTMCFLGLILFVPTALADNS, the AmyQ secretion efficiency stood at 1.7.
MTLTSGFLLLSCLALSTVFVATTIANAPTH registered an AmyQ secretion efficiency of 5.02.
The result for MKSKWMSGLLLVAVGFSFTQVMVHARRR reads 7.53.
The sequence MKVCQKSIVRSQRSLIIGTFVISVPFMANAQSD returned an AmyQ secretion efficiency of 5.65.
With MKLKSKLLLSCLALSTVFVATTIANIPTH the figure was 5.95; with MKIRKILLSSALSFGMLLILTSISAVPALAAGT, 2.99; with MKKLVLCVSILAVILRKKALTQLS, 7.41.
Sequence MKKRKRRNFKRFIAAFLVLALMISLVPADCLAKST came in with an AmyQ secretion efficiency of 3.04.
MFNRLFRYCTLAALIMAFTLPNSVYAQKP yielded an AmyQ secretion efficiency of 1.93.
Turning to MKLSVKIAGVLTVAAAAMTAKMYLTAKGN, the AmyQ secretion efficiency turned out to be 7.31.
MRPVFPIMNNILLILSAVLFLSCFFGARQTEASASKR came in with an AmyQ secretion efficiency of 1.84.
On to MLKKIALTLCPAIVGSLLFFTAGASAHVS, for which the AmyQ secretion efficiency is 3.12.
MLKKKWMVGLLAGCLAAGGFSYNAFATEE returned an AmyQ secretion efficiency of 3.49.
Regarding MSTGILAAGLTASAIVGTTLVVTPAEAATI, the AmyQ secretion efficiency came to 4.73.
Sequence MKIRKILLSSALSFGMLISAVPGLAAGT had an AmyQ secretion efficiency of 3.97.
The result for MKKELLASLVLCLSLKRLVSTNKVFAATT reads 7.51; that for MKKRLIAPMLLSAASLAFFAMSGSYQAAAY, 6.45.
The result for MKKLLAAGIIGLLTVSIASPSFLAEK reads 5.65; that for MKRKLLSSLAISALSLGLLVKRRKKKSFAAES, 7.18; that for MKKIAGVLTVAAAAMTAKMYATAKGN, 7.41.
The sequence MTKKAWFLPLVCVLLISGWLAPAASMSAQTT returned an AmyQ secretion efficiency of 3.47.
As to MFNRLFRVCFLAALIMAFTVYAQKP, the AmyQ secretion efficiency was 6.93.
Sequence MKKKLAAGLTASAIVGTTLVVTPDEAATI showed an AmyQ secretion efficiency of 5.54.
MRPVFPLILSAVLFLSCFFFGARQTEASASKR registered an AmyQ secretion efficiency of 1.8.
With MKSKWMSGLLLVAVGFSFTQVMGGFFAVHAGET, the AmyQ secretion efficiency stood at 7.03.
MLKKKWMVGLLAGCLAAGGFSYNAFDTEN showed an AmyQ secretion efficiency of 6.19.
With MFKKHTISLLIIFLLASAVLAKPSEAHTV the figure was 2.57.
Regarding MKRMIVRMTLPLLIVCLAFSSFSASARAASF, the AmyQ secretion efficiency worked out at 1.55.
With MGRIKTKITILLVLLLLLAGTYMYIN the figure was 6.42.
Turning to MKLWMRKTLVVLFTIVTFGLVSPPAAQMADKP, the AmyQ secretion efficiency was 1.81.
As for MKKRLIAPMLLSAASLAFMSGSAQAAAY, the AmyQ secretion efficiency worked out at 3.31.
With MKKLRKKKKKGLLTVSIASPSFAAEK the figure was 7.52; with MSFIIIPMTLALGAALTIAPLSFASAEEN, 6.39.
The result for MKTKTLFIFSAILTLSIQAPNETFAQTA reads 2.35; that for MGLGKKLSVAVAASFMSLSISLPGVQYAEG, 4.06; that for MKKCLAVTLVFGSMSFPTLTNSGGFKE, 4.92.
In turn, MKKVLMAFIICLSLILSVLAAPPSGHKAESV registered an AmyQ secretion efficiency of 7.55.
Turning to MKKMLGKSGKQTTTGVFFAVVVKDVFAAGL, the AmyQ secretion efficiency is 6.37.
Consider MRGKSAVLLSLIMLIAGFLISFSFQD, for which the AmyQ secretion efficiency stood at 6.77.
Turning to MFSKWMSGLLLVAVGFSFTQVMVHAGET, the AmyQ secretion efficiency was determined as 6.12.
The sequence MGLGKKLSVAVAASFMSLSISLPGVQTAEG gave an AmyQ secretion efficiency of 3.78.
In the case of MKIRKILLSSALSFGMLEDDDEDALAAGT, the AmyQ secretion efficiency stood at 5.74.
MRNLTKTSLLLAGLCTAAIMVFVIHASAEES: the AmyQ secretion efficiency was 5.76.
Consider MFSIGSIMACLILFSFTITTFINTETISAFSN, for which the AmyQ secretion efficiency came to 5.65.
MNKRFFGPIILAFILFAGAIAIPS gave an AmyQ secretion efficiency of 7.33.
As for MKKGQYRRGSLGLVFGFSYGAGHVAEAKTK, the AmyQ secretion efficiency worked out at 7.9.
With MKKIGLLFMLCLAALFTIGFPAQQADAEED, the AmyQ secretion efficiency was 2.27.
On to MRKKLKWLSTLLGFIILLFLFKYQFSNNDS, for which the AmyQ secretion efficiency was 5.35.
The result for MMVCMKSIVRFLVSLIIGTFVISVPFMANAQSD reads 2.06.
MKWMCSICCAAVLLAGAAAAQAEAV registered an AmyQ secretion efficiency of 4.13.
Consider MLCVMMLLFSAIASFPVSAQAAPQ, for which the AmyQ secretion efficiency was 4.18.
With MHLIRAAGAVCLAVVLIAGCRFNEDQHQAELENT, the AmyQ secretion efficiency was found to be 6.53.
Turning to MKKVKRAFIICLSLILSVLAAPPSGAKAESV, the AmyQ secretion efficiency turned out to be 1.67.
In turn, MKKVLMAFIICLSLILSVLAAPPSGAKSESV registered an AmyQ secretion efficiency of 3.92.
As to MLKRTSLFISSAVLLSILLPSGQAHAQSA, the AmyQ secretion efficiency came out at 2.05.
The sequence MKKKIVAGLAVSAVVQDDPSAAPAEAKTI showed an AmyQ secretion efficiency of 7.07.
As to MKLWMRKTLVVLFTIVTFGLVSPPAALMQDKP, the AmyQ secretion efficiency is 2.54.
MHLIRAAGAVCLAVVLIAGCRFNEDQHQAEWENT gave an AmyQ secretion efficiency of 6.12.
In the case of MLKKKWMVGLLAGCLAAGRKKKKKAFATEN, the AmyQ secretion efficiency amounted to 7.31.
As for MKKKLAAGLTASAIVGTTLVVTPAEPATI, the AmyQ secretion efficiency was 6.62.
MRSYIKVLTMCFLGLILFVRRKALADNS had an AmyQ secretion efficiency of 6.5.
Sequence MMIKQCVICLSLLVFGTTAAHARKR registered an AmyQ secretion efficiency of 6.42.
Sequence MKKKLAAGLTASAIVGTTLVVTPAECATI showed an AmyQ secretion efficiency of 4.47.
As for MFNRLFRVCFLAALIMAFTLPNSVYAQTP, the AmyQ secretion efficiency was 2.03.
The result for MLFLLVSLRVWMVFLMNWVTPDRKTAAAAVY reads 6.62; that for MRKKTKNRLISSVLSTVVISSLLFPGAAGARKK, 2.52; that for MFNRLFRVCFLAALIMAFTLPNSGYAQKP, 2.99.
With MKKLVLCVSILAVILSGVALTQLS the figure was 5.95 and 6.59 and 6.66.
Take MGGSIILLLAVIIAAAAAGVAFYV: the AmyQ secretion efficiency was 7.67.
Consider MRPVFPLILSAVLFLSCFFGAREASASKR, for which the AmyQ secretion efficiency turned out to be 1.24.
Take MKLKSKLFVICLAAAAIFRKKKVSANAEALDF: the AmyQ secretion efficiency stood at 6.32.
Sequence MNFKKTVVSALSISALALEPSGVASAHEI returned an AmyQ secretion efficiency of 2.95.
In turn, MKSKGSIMSACLILFSFTITTFINTETISAFSN had an AmyQ secretion efficiency of 3.07.
MFKKLLLATSALTFSLSLVLPLDGHAKAQED showed an AmyQ secretion efficiency of 2.98.
The sequence MRKNRILALFVLSLGLLSFMVTPCSAASK came in with an AmyQ secretion efficiency of 2.01.
MLKGIIRFLLVSFVLFFALSTGITGVQAAPA registered an AmyQ secretion efficiency of 2.22.
Sequence MAIIIAIIAAVIVIAALITFNVRNASKR returned an AmyQ secretion efficiency of 7.12.
With MKKVLMAFIICLSLILSVLAAPPSGKKAESV the figure was 8.34; with MPIKKKVMMCLAVTLVFGSMRRKTLTNSGGFKE, 7.75.
In turn, MKWMCSICCAAVLLAGGTAQAEAV gave an AmyQ secretion efficiency of 2.47.
The sequence MKRLLVSLRVWMVFLMNWVTPDRKTEAAAVY returned an AmyQ secretion efficiency of 6.9.
For MRSYIKVLTMCFLGLILFVPTALCDNS, the AmyQ secretion efficiency was determined as 3.89.

Source of the values: the supplement of paper PMC9942255.
